Here are results for two substances from PMC5775426.

Assay [1] concerns the target AV2 protein of tomato leaf curl Palampur virus, untagged, in N. benthamiana leaves (Tomato leaf curl Palampur virus). The assay can be described thus: SDS-PAGE and western blot; leaf extracts of N. benthamiana (PVX-infiltrated at 14 dpi, ToLCPalV-infected, TRV-infiltrated), boiled 5 minutes, 10% SDS-PAGE, detection with AV2 antiserum; dimer told from the band's size. On the technique in general: In western blotting, separated proteins are transferred to a membrane and probed.

The target of assay [2] is AV2Δ10N, untagged, from PVX-AV2Δ10N in N. benthamiana leaves (Tomato leaf curl Palampur virus). The description is as above.

As to “AV2 protein of tomato leaf curl Palampur virus, untagged, in N. benthamiana leaves (natural protein)”, the stoichiometry N (usually the number of molecules, sites or subunits per partner or assembly) in assay [1] came to 2. “AV2Δ10N, untagged, from PVX-AV2Δ10N in N. benthamiana leaves (domain or fragment)” showed a stoichiometry N in assay [2] of 2.
